Measurements reported in patent US20170298331.

How the values were obtained:
TALEN TN3 (Artificial) = experiment: cell_activity; conditions: pair TN3/8, 17 bp spacer, preceded by 5'-T; Surveyor assay in DMD myoblasts (up to 12.7% and 6.8% in two lines)
TALEN TN8 (Artificial) = experiment: cell_activity; conditions: pair TN3/8, 17 bp spacer, preceded by 5'-T; Surveyor assay in DMD myoblasts (up to 12.7% and 6.8% in two lines)

Row | Sequence | activity (% modified alleles) (TALEN TN3 (Artificial)) | activity (% modified alleles) (TALEN TN8 (Artificial))
1 | AGCTCCTACTCAGACT (double strand) [TN3 half-site, DMD exon 51] | 12.7 | –
2 | CCTTAGTAACCACAGGT (double strand) [TN8 half-site, DMD exon 51] | – | 12.7
